Positions count from the first letter of the chain named.

A word on the Kd: it is the concentration at which binding is half-saturated. A lower Kd goes with higher affinity.

What all share (assay): high-throughput RNA pulldown from lysate on Ni-NTA beads; HRP: 50 mM Tris pH 8, 150 mM NaCl, 1 mM beta-mercaptoethanol, 50 ug/ml BSA, 3 ug/ml yeast RNA, 0.5% heparin; ITC and FP: Tris pH 8, 200 mM KCl, 5% glycerol; MST: 50 mM Tris pH 8, 200 mM NaCl, 1 mM DTT, BSA, heparin, 0.05% Tween 20
Conditions in all cases: tags: N-terminal His-eGFP

For series [1], the target named is T1, GFP-9S library array, motif 4 ND N98F;D124Q (synthetic construct, N98F;D124Q).
T1 chain: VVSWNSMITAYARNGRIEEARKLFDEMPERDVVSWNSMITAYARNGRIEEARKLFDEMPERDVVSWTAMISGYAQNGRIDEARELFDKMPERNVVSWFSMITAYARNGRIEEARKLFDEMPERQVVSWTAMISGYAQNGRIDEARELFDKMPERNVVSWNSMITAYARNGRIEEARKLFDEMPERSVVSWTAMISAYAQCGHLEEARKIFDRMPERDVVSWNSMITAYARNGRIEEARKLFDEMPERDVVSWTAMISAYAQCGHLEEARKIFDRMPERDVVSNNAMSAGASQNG

For series [2], the target named is T2, GFP-9S library array, motif 4 ND N98D;D124A (synthetic construct, N98D;D124A).
T2 chain: T1 chain with F98D, Q124A

For series [3], the target named is T3, GFP-9S library array, motif 4 ND N98D;D124T (synthetic construct, N98D;D124T).
T3 chain: T1 chain with F98D, Q124T

Series [4] has as its target T4, GFP-9S library array, motif 4 ND N98C;D124M (synthetic construct, N98C;D124M).
T4 chain: T1 chain with F98C, Q124M

The target in series [5] is T5, GFP-9S library array, motif 4 ND N98D;D124Y (synthetic construct, N98D;D124Y).
T5 chain: T1 chain with F98D, Q124Y

On to AUUAUACGUGA (ssRNA) [IR-rpoA-U], for which the Kd is 466 nM in series [1] (label: 5' IRDye 800CW); 174 nM in series [2] (label: 5' IRDye 800CW); 301 nM in series [3] (label: 5' IRDye 800CW); 179 nM in series [4] (label: 5' IRDye 800CW); 266 nM in series [5] (label: 5' IRDye 800CW).
Regarding AUUAAACGUGA (ssRNA) [IR-rpoA-A], the Kd in series [1] (label: 5' IRDye 800CW) stood at 419 nM; in series [2] (label: 5' IRDye 800CW), 233 nM; in series [3] (label: 5' IRDye 800CW) it was 320 nM; in series [4] (label: 5' IRDye 800CW), 266 nM; in series [5] (label: 5' IRDye 800CW) it was 1180 nM.
AUUACACGUGA (ssRNA) [Cy5-rpoA]: the Kd came to 158 nM in series [1] (label: 5' Cy5); 103 nM in series [2] (label: 5' Cy5); 123 nM in series [3] (label: 5' Cy5); 90.5 nM in series [4] (label: 5' Cy5); 153 nM in series [5] (label: 5' Cy5).
Turning to AUUAGACGUGA (ssRNA) [Cy5-rpoA-G], the Kd in series [1] (label: 5' Cy5) was found to be 143 nM; in series [2] (label: 5' Cy5), 114 nM; in series [3] (label: 5' Cy5) it was 106 nM; in series [4] (label: 5' Cy5), 113 nM; in series [5] (label: 5' Cy5), 246 nM.

Source of the values: article PMC8809517, “Cofactor-independent RNA editing by a synthetic S-type PPR protein”.
